In US20070292447A1 one finds decrease in OD (inhibition of CS40 binding to ManLAM) data, which are given here for 1 molecule.

This experiment concerns the target CS40 anti-ManLAM monoclonal antibody. The experiment is described as follows: competitive ELISA, ManLAM-coated plate, CS40 mixed with peptide; at 50 µg/ml peptide.

As to ISLTEWSMWYRH [B11 synthetic peptide (…)], the decrease in OD (inhibition of CS40 binding to ManLAM) is 100%.
